Laboratory results: PMC9633773, “Discovering cell-active BCL6 inhibitors: effectively combining biochemical HTS with multiple biophysical techniques, X-ray crystallography and cell-based assays” (Scientific Reports, 2022)

Target: BCL6 BTB domain (BCL6 5-129, tag removed by HRV-3C protease) (human) (UniProt P41182)
Assay: fluorescence polarisation; competition: 10 nM BCOR-AF633, 3 µM BCL6 BTB, unlabelled peptide varied; 20 mM Hepes/NaOH pH 8.0, 150 mM NaCl, 0.5 mM TCEP, 0.05% Tween 20, 1-2% DMSO; 2 h at room temperature

WVIP tetrapeptide (Ac-WVIP-NH2)
% inhibition at 980 µM: 16%
